We go through 20 molecules from patent publication US20070081998A1 (published 2007).

Sequences and labels used below:
T1: biotin-Aβ1-20 (UniProt P05067 672-691, not fully specified; biotin (site not stated))
T1 construct: domain: Aβ1-20; BIACORE antigen standing for monomeric Aβ peptide; also called biotinylated-Aβ1-20
T1 peptide (looked up): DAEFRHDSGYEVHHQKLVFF

B1: 20C2-6A IgG1 (antibody, V domains shown)
VH: QVTLKESGPALVKPTQTLTLTCTFSGFSLSTSGMGVGWIRQPPGKALEWLAHIWWDDDKSYNPSLKSRLTISKDTSKNQVVLTMTNMDPVDTATYYCARRQLGLRSIDAMDYWGQGTTVTVSS
VL: DVVMTQSPLSLPVTPGEPASISCRSSQSILHSNGNTYLEWYLQKPGQSPQLLIYKVSNRFSGVPDRFSGSGSGTDFTLKISRVEAEDVGVYYCFQSSRVPLTFGQGTKLEIK
notes: IgG1 humanized A version; also called 4P1-22
B2: 20C2-8B IgG1 (antibody, V domains shown)
VH: B1 VH with F24L
VL: B1 VL with F94L, S96T, S97T
notes: IgG1 humanized B version; also called SJ-p2-39
B3: 20C2-5A IgG1 (antibody, V domains shown)
VH: B1 VH
VL: B1 VL with R98F
notes: IgG1 humanized A version; also called SJ-p2-1F
B4: 20C2-8A IgG1 (antibody, V domains shown)
VH: B1 VH
VL: B1 VL with F94L, S96T, S97T
notes: IgG1 humanized A version; also called SJ-p2-39
B5: 20C2-2A IgG1 (antibody, V domains shown)
VH: B1 VH
VL: B1 VL with S96A, S97T
notes: IgG1 humanized A version; also called SJ-p1-18
B6: 20C28B Fab (Fab, V domains shown)
VH: B1 VH with F24L
VL: DVVMTQSPLSLPVTPGEPASISCRSSQSILHSNGNTYLEWYLQKPGQSPQLLIYKVSNRFSGVPDRFSGSGSGTDFTLKISRVEAEDVGVYYCLQTTRVPLTFGQGTKLEIKR
B7: 4b-A7 Fab (Fab, V domains shown)
VH: B1 VH with F24L, L104K, R105L, S106A, I107L
VL: B6 VL
B8: 4a-A3 Fab (Fab, V domains shown)
VH: B1 VH with F24L, L104T, S106G, I107T
VL: B6 VL
B9: 4b-H11 Fab (Fab, V domains shown)
VH: B1 VH with F24L, L104R, I107V
VL: B6 VL
B10: 20C2-6B IgG1 (antibody, V domains shown)
VH: B1 VH with F24L
VL: B1 VL
notes: IgG1 humanized B version; also called 4P1-22
B11: 20C2-1A IgG1 (antibody, V domains shown)
VH: B1 VH
VL: B1 VL with S96A
notes: IgG1 humanized A version; also called SJ-p2-60
B12: 20C2-24A IgG1 (antibody, V domains shown)
VH: B1 VH
VL: B1 VL with F94G, S96T, S97T, R98L
notes: IgG1 humanized A version; also called SJ-p2-44
B13: 20C2-3A IgG1 (antibody, V domains shown)
VH: B1 VH
VL: B1 VL with S96G, R98F, V99I, L101G
notes: IgG1 humanized A version; also called SJ-p3-16
B14: Mouse-20C2 antibody (IgG1) (antibody, V domains shown)
VH: QVTLKESGPGILKPSQTLSLTCSLSGFSLSTSGMGVGWFRQPSGKGLEWLAHIWWDDDKSYNPSLKSRLTISKYTSRNQVFLTITSVDTADTATYYCARRQLGLRSIDAMDYWGQGTSVTVSS
VL: DVLMTQTPLSLPVSLGDQASISCRSSQSILHSNGNTYLEWYLQKPGQSPKLLIYKVSNRFSGVPDRFSGSGSGTDFTLKISRVEAEDLGVYYCFQGSLVPLTFGAGTKLELK
notes: value in the column IgG1 #1; also called murine 20C2
B15: Hu20C2A3 (veneered version of clone A3, IgG2m4 isotype) (antibody, V domains shown)
VH: B1 VH with A10G, V12L, F24L, I39F, A46G, M84I, M87V, L104T, S106G, I107T
VL: B6 VL with S7T, E17Q
notes: to be checked against the listing; also called Hu20C2A3 produced in CHO; Hu20C2A3 produced in Pichia
B16: clone A3 humanized by veneering, full IgG1 molecule (antibody, V domains shown)
VH: B1 VH with A10G, V12L, F24L, I39F, A46G, M84I, M87V, L104T, S106G, I107T
VL: B1 VL with S7T, E17Q, F94L, S96T, S97T
notes: also called Hu20C2A3 IgG1/kappa version
B17: 20C2-2A Fab (Fab, V domains shown)
VH: B1 VH
VL: B6 VL with L94F, T96A
B18: 20C2-5A Fab (Fab, V domains shown)
VH: B1 VH
VL: B6 VL with L94F, T96S, T97S, R98F
B19: 20C2-6A Fab (Fab, V domains shown)
VH: B1 VH
VL: B6 VL with L94F, T96S, T97S
B20: Mouse-20C2 Fab (Fab, V domains shown)
VH: B14 VH
VL: B14 VL
notes: Value in the Fab column of the row Mouse-20C2; also called murine 20C2

Substitutions are numbered along the chain they refer to.

The target in one experiment is T2, biotinylated ADDL (bADDL) (UniProt P05067 672-713, N-terminal biotin).
T2 construct: domain: Aβ1-42; Soluble oligomers of Aβ1-42; also called bADDLs; biotinylated high molecular weight ADDL
The experiment can be described thus: BIACORE, bADDL as antigen; column IgG1 #2. Background: In SPR one partner is held on a chip, and binding of the other changes the refractive index at the surface.
In the case of B1, the Kd stood at 24 pM. For B2, the Kd is 0.8 pM. B3: the affinity, expressed as Kd, was 68 pM. B4 had a Kd of 0.7 pM.

Molecule B5 returned an equilibrium dissociation constant (Kd) of 0.3 pM.

The target in the next experiment is T1, biotin-Aβ1-20. The experiment can be described thus: BIACORE, Fab fragment against biotinylated-Aβ1-20.
As to B6, the Kd worked out at 1100 pM. The same measure, in the same setting: with B7 the figure was 1720 pM; with B8, 849 pM; with B9, 1330 pM.

A further experiment has as its target T2, biotinylated ADDL (bADDL). The experiment can be described thus: BIACORE, bADDL as antigen; column IgG1 #1.
For B1, the Kd was found to be 4.3 pM. This lies in the picomolar range. The molecule B10 gave a Kd of 53 pM. Still for that read-out and setting: with B11 the figure was 75 pM; with B2, 13 pM. In turn, B12 yielded an equilibrium dissociation constant (Kd) of 114 pM. Compared with the last molecule, the Kd is about 8.8-fold higher. Molecule B3 yielded a Kd of 317 pM. Same read-out and setting: as for B4, the figure is 3 pM; as for B13, 3700 pM. B5 returned a Kd of 15 pM. This Kd is about 250-fold lower than that of the molecule before.

Consider B14, for which the Kd is 4100 pM.

For another experiment, the target named is T1, biotin-Aβ1-20. The experiment in a line: BIACORE.
Turning to B15, the binding result was “binds”. B16: the binding result is reported as “binds”.

A further experiment has as its target T2, biotinylated ADDL (bADDL). The experiment in a line: BIACORE, Fab fragment against bADDL.
On to B6, for which the equilibrium dissociation constant (Kd) turned out to be 1100 pM. For the molecule B7, the affinity, expressed as Kd, was 376 pM. Same read-out and setting: with B8 the figure was 82.3 pM; with B9, 1050 pM.

The target of another experiment is T2, biotinylated ADDL (bADDL). The experiment in a line: cell-based or functional assay.
Regarding B15, the “inhibition of bADDL binding to primary hippocampal neurons (alkaline phosphatase-streptavidin luminescence)” value was 0.16 antibody to peptide ratio.

The next experiment addresses T3, Aβ-derived diffusible ligands (ADDLs) (UniProt P05067 672-713).
T3 construct: domain: Aβ1-42; Soluble oligomers of Aβ1-42
The experiment can be described thus: ELISA; reference is binding of the same antibody to Aβ40 monomer. On the procedure: Affinity maturation was carried out to improve affinity and improve preferential binding to ADDL. To evaluate ADDL binding affinity of the humanized antibodies, BIACORE™ and titration ELISAs were conducted as disclosed herein. Briefly, Streptavidin-coated, 96-well microtiter plates (Sigma, St. Louis, Mo.) were coated with 10% biotinylated ADDL antigen (1 μM). A series of 2-fold dilutions of purified antibody, starting at 500 ng/mL was added to the ADDL captured plates and the plates were incubated for 2 hours at 25° C. […] A rabbit anti-goat IgG (H+L) HRP-conjugated (Bethyl Laboratories, Inc., Montgomery, Tex.) detection antibody was then added at a 1/2000 dilution in blocking solution and incubated for 1 hour at room temperature. After washing with PBS, HRP substrate, 3,3′,5′5-tetramethylbenzidine (ready-to-use TMB; Sigma, St. Louis, Mo.) was added and the reaction was stopped after 10 minutes with 0.5 N H₂SO₄. Absorbance at wavelength of 450 nm was read in a plate reader (model VICTOR V; Perkin Elmer, Boston, Mass.) and data were processed using EXCEL® work sheet.
With B15, the “fold preference for ADDL binding versus Aβ40 monomer binding” value worked out at 6 fold.

In a further experiment the target is T2, biotinylated ADDL (bADDL). The experiment can be described thus: BIACORE, bADDL as antigen; column Fab.
In turn, B17 yielded an equilibrium dissociation constant (Kd) of 28000 pM.

On to B18, for which the Kd was 41000 pM.

For B19, binding was characterised by a dissociation constant (Kd) of 42000 pM. This Kd and that of the molecule before are within 1.5-fold of each other.

In turn, B20 gave a dissociation constant Kd of 62000 pM.

One may read the Kd as the concentration at which binding is half-saturated. Higher therefore signals a looser complex.
